Here are results for 8 proteins from paper doi:10.1101/2023.08.01.551421 (bioRxiv, 2023).

Data set [1] deals with the molecule itself. Description: light scattering-based polymerization assay.
The data set “cross-linking” concerns the molecule itself. Description: cross-linking.
The data set “GTP hydrolysis assay” concerns the molecule itself. The experiment in a line: GTP hydrolysis assay.

Where a chain is given by its changes, count along the chain named. In names and notes the source's numbering stands.

B1: GBP1 Δ207-216 variant, farnesylated (natural protein)
chain: MASEIHMTGPMCLIENTNGRLMANPEALKILSAITQPMVVVAIVGLYRTGKSYLMNKLAGKKKGFSLGSTVQSHTKGIWMWCVPHPKKPGHILVLLDTEGLGDVEKGDNQNDSWIFALAVLLSSTFVYNSIGTINQQAMDQLYYVTELTHRIRSKSSPDENENEVEDSADFVSFFPDFVWTLRDFSLDLEADGQPLTPDEYLTYSLGGGSETFNLPRLCIRKFFPKKKCFVFDRPVHRRKLAQLEKLQDEELDPEFVQQVADFCSYIFSNSKTKTLSGGIQVNGPRLESLVLTYVNAISSGDLPCMENAVLALAQIENSAAVQKAIAHYEQQMGQKVQLPTETLQELLDLHRDSEREAIEVFIRSSFKDVDHLFQKELAAQLEKKRDDFCKQNQEASSDRCSALLQVIFSPLEEEVKAGIYSKPGGYRLFVQKLQDLKKKYYEEPRKGIQAEEILQTYLKSKESMTDAILQTDQTLTEKEKEIEVERVKAESAQASAKMLQEMQRKNEQMMEQKERSYQEHLKQLTEKMENDRVQLLKEQERTLALKLQEQEQLLKEGFQKESRIMKNEIQDLQTKMRRRKACTIS
modifications: farnesyl moiety, C-terminal (CaaX box motif)
As to B1, the binding result in data set [1] is listed as “binds”.

B2: GBP1 Δ207-216 variant, non-farnesylated (natural protein)
chain: B1 chain
Consider B2, for which, in “cross-linking”, the “stoichiometry N” value was found to be 2. Besides, the “fold lower dimerization affinity than wild-type” value in “GTP hydrolysis assay” is 1.8 fold.

B3: GBP1 D199K, non-farnesylated (natural protein)
chain: MASEIHMTGPMCLIENTNGRLMANPEALKILSAITQPMVVVAIVGLYRTGKSYLMNKLAGKKKGFSLGSTVQSHTKGIWMWCVPHPKKPGHILVLLDTEGLGDVEKGDNQNDSWIFALAVLLSSTFVYNSIGTINQQAMDQLYYVTELTHRIRSKSSPDENENEVEDSADFVSFFPDFVWTLRDFSLDLEADGQPLTPKEYLTYSLKLKKGTSQKDETFNLPRLCIRKFFPKKKCFVFDRPVHRRKLAQLEKLQDEELDPEFVQQVADFCSYIFSNSKTKTLSGGIQVNGPRLESLVLTYVNAISSGDLPCMENAVLALAQIENSAAVQKAIAHYEQQMGQKVQLPTETLQELLDLHRDSEREAIEVFIRSSFKDVDHLFQKELAAQLEKKRDDFCKQNQEASSDRCSALLQVIFSPLEEEVKAGIYSKPGGYRLFVQKLQDLKKKYYEEPRKGIQAEEILQTYLKSKESMTDAILQTDQTLTEKEKEIEVERVKAESAQASAKMLQEMQRKNEQMMEQKERSYQEHLKQLTEKMENDRVQLLKEQERTLALKLQEQEQLLKEGFQKESRIMKNEIQDLQTKMRRRKACTIS
Take B3: the binding result in the data set “cross-linking” is recorded as “binds”.

B4: GBP1 D199A, farnesylated (natural protein)
chain: B3 chain with K199A
modifications: farnesyl moiety, C-terminal (CaaX box motif)
In the case of B4, the binding result in the data set “cross-linking” was “binds”.

B5: GBP1 D199A, non-farnesylated (natural protein)
chain: B3 chain with K199A
Turning to B5, in “cross-linking”, the binding result was “binds”.

B6: GBP1 D199K, farnesylated (natural protein)
chain: B3 chain
modifications: farnesyl moiety, C-terminal (CaaX box motif)
On to B6, for which the binding result in the data set “cross-linking” is on record as “binds”.

B7: GBP1 Δ207-213 variant, non-farnesylated (natural protein)
chain: MASEIHMTGPMCLIENTNGRLMANPEALKILSAITQPMVVVAIVGLYRTGKSYLMNKLAGKKKGFSLGSTVQSHTKGIWMWCVPHPKKPGHILVLLDTEGLGDVEKGDNQNDSWIFALAVLLSSTFVYNSIGTINQQAMDQLYYVTELTHRIRSKSSPDENENEVEDSADFVSFFPDFVWTLRDFSLDLEADGQPLTPDEYLTYSLGGGSGGGSQKDETFNLPRLCIRKFFPKKKCFVFDRPVHRRKLAQLEKLQDEELDPEFVQQVADFCSYIFSNSKTKTLSGGIQVNGPRLESLVLTYVNAISSGDLPCMENAVLALAQIENSAAVQKAIAHYEQQMGQKVQLPTETLQELLDLHRDSEREAIEVFIRSSFKDVDHLFQKELAAQLEKKRDDFCKQNQEASSDRCSALLQVIFSPLEEEVKAGIYSKPGGYRLFVQKLQDLKKKYYEEPRKGIQAEEILQTYLKSKESMTDAILQTDQTLTEKEKEIEVERVKAESAQASAKMLQEMQRKNEQMMEQKERSYQEHLKQLTEKMENDRVQLLKEQERTLALKLQEQEQLLKEGFQKESRIMKNEIQDLQTKMRRRKACTIS
Turning to B7, the “stoichiometry N” value in “cross-linking” worked out at 2. The “fold lower dimerization affinity than wild-type” value in the data set “GTP hydrolysis assay” was determined as 3 fold.

B8: GBP1 Δ207-213 variant, farnesylated (natural protein)
chain: B7 chain
modifications: farnesyl moiety, C-terminal (CaaX box motif)
On to B8, for which, in data set [1], the binding result was “binds”.

A word on the stoichiometry N: it is the number of molecules, sites or subunits per partner or assembly.
